Measured values as given in article PMC5795435.

How the values were obtained:
Experiment in all cases: cryo-EM structure
[1] = molecular target: Bufavirus 1 (BuV1) VP2, assembled as virus-like particles (Bufavirus 1 (BuV1))
[2] = molecular target: Bufavirus 2 (BuV2) VP2, assembled as virus-like particles (Bufavirus 2 (BuV2))
[3] = molecular target: Bufavirus 3 (BuV3) VP2, assembled as virus-like particles (Bufavirus 3 (BuV3))

Bufavirus 1 (BuV1) VP2, assembled as virus-like particles (natural protein)
stoichiometry N [1]: 60

Bufavirus 2 (BuV2) VP2, assembled as virus-like particles (natural protein)
stoichiometry N [2]: 60

Bufavirus 3 (BuV3) VP2, assembled as virus-like particles (natural protein)
stoichiometry N [3]: 60
